Results: publication PMC5815136

T1: Ct_Rio2 (Chaetomium thermophilum? (given only as …, UniProt L0BC08 1-396))
T1 sequence: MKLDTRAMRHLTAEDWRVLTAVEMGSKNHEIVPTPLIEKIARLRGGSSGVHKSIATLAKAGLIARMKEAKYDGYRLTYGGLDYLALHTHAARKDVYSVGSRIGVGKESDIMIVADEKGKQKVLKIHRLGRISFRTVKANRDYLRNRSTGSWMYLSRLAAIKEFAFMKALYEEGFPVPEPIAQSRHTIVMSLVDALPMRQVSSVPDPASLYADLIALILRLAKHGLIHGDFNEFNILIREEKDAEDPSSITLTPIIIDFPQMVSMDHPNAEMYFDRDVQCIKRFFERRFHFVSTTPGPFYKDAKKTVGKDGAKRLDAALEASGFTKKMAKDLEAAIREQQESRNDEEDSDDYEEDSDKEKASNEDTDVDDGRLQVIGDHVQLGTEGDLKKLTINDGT

T2: Ct_Rio2 K106A (Chaetomium thermophilum? (given only as …, UniProt L0BC08 1-396, K106A))
T2 sequence: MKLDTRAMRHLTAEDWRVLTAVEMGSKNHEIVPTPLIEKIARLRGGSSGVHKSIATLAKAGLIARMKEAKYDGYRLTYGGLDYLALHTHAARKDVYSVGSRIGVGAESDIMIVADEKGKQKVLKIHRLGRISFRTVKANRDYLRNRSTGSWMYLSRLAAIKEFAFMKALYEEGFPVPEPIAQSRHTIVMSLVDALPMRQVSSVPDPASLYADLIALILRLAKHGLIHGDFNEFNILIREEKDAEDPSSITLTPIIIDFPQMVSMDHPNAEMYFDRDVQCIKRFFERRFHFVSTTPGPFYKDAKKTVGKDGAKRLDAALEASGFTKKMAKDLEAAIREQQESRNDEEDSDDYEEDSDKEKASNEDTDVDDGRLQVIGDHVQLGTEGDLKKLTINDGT


Columns and labels:
Ct_Rio2 = molecular target: T1, Ct_Rio2; assay: EMSA
Ct_Rio2 K106A = molecular target: T2, Ct_Rio2 K106A; assay: EMSA

Row | Binder | binding result (Ct_Rio2) | binding result (Ct_Rio2 K106A)
1 | GGGUUAAUUUGACUCAACACGGGGAAA (structured_RNA) [h31] | binds | –
2 | GGGUUAAUUUGACUCAACACAAAGAAA (structured_RNA) [h31* (h31-Stab)] | binds | binds
